In patent US20250368742A1 (D2M BIOTHERAPEUTICS, published 2025):
Residue numbers refer to the chain shown, from its start.

T1: NKG2D-His (UniProt P26718 78-216, limits assumed)
T1 sequence (looked up): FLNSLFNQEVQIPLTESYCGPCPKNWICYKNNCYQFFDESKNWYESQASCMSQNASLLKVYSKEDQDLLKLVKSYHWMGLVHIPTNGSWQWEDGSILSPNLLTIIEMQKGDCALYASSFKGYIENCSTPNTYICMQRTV

B1: MICA008-ECD-HISAvi (ligand)
chain: EPHSLRYNLTVLSWDGSVQSGFLAEVHLDGQPFLRYDRQKCRAKPQGQWAEDVLGNKTWDRETRDLTGNGKDLRMTLAHIKDQKEGLHSLQEIRVCEIHEDNSTRSSQHFYYDGELFLSQNLETEEWTVPQSSRAQTLAMNVRNFLKEDAMKTKTHYHAMHADCLQELRRYLESGVVLRRTVPPMVNVTRSEASEGNITVTCRASSFYPRNIILTWRQDGVSLSHDTQQWGDVLPDGNGTYQTWVATRICRGEEQRFTCYMEHSGNHSTHPVPSGKVLVLQSHWQHHHHHHGLNDIFEAQKIEWHE
notes: Two sources under one name in the two kinetic assays; also called MICA008 polypeptide
B2: MICA002-ECD-HISAvi (ligand)
chain: B1 chain with W14G, Y36C, V129M, E173K, S206G, R210W, I213T, T215S, R251Q
notes: also called MICA002 polypeptide
B3: MICB005-ECD-HISAvi (ligand)
chain: EPHSLRYNLMVLSQDGSVQSGFLAEGHLDGQPFLRYDRQKRRAKPQGQWAEDVLGAKTWDTETEDLTENGQDLRRTLTHIKDQKGGLHSLQEIRVCEIHEDSSTRGSRHFYYDGELFLSQNLETQESTVPQSSRAQTLAMNVTNFWKEDAMKTKTHYRAMQADCLQKLQRYLKSGVAIRRTVPPMVNVTCSEVSEGNITVTCRASSFYPRNITLTWRQDGVSLSHNTQQWGDVLPDGNGTYQTWVATRIRQGEEQRFTCYMEHSGNHGTHPVPSGKALVLQSQRTDHHHHHHGLNDIFEAQKIEWHE
notes: Two sources under one name in the two kinetic assays; also called MICB005 polypeptide

Target: T1, NKG2D-His
Test: ELISA: NKG2D-His coated, MICA/B-ECD titrated, detection 1D5 + anti-hFc-HRP

Row | EC50 (read off the curve) [µg/mL] | Binder
1 | ~0.1 | B1
2 | ~0.2 | B2
3 | ~0.02 | B3
